Laboratory results reported in patent US20200249231.

What was measured:
[1] = target: T1, WYALQ (5-mer on peptide array)
T1 chain: WYALQ

[2] = target: T2, YKGRG (5-mer on peptide array)
T2 chain: YKGRG

[3] = target: T3, EYVAQ (5-mer on peptide array)
T3 chain: EYVAQ

[4] = target: T4, KYRYK (5-mer on peptide array)
T4 chain: KYRYK

[5] = target: T5, RYRQR (5-mer on peptide array)
T5 chain: RYRQR

[6] = target: T6, YKSWK (5-mer on peptide array)
T6 chain: YKSWK

[7] = target: T7, LRYRQ (5-mer on peptide array)
T7 chain: LRYRQ

[8] = target: T8, EYVLQ (5-mer on peptide array)
T8 chain: EYVLQ

[9] = target: T9, Z-[GGGRYRSKGGGG]
T9 chain: GGGRYRSKGGGG

[10] = target: T10, Z-[GGGMLAQGSGGG]
T10 chain: GGGMLAQGSGGG

[11] = target: T11, FYKYK (5-mer on peptide array)
T11 chain: FYKYK

[12] = target: T12, RFYSK (5-mer on peptide array)
T12 chain: RFYSK

[13] = target: T13, Z-[GGGAYRTKGGGG]
T13 chain: GGGAYRTKGGGG

[14] = target: T14, Z-[GGGYKYRQGGGG]
T14 chain: GGGYKYRQGGGG

[15] = target: T15, PRYRQ (5-mer on peptide array)
T15 chain: PRYRQ

[16] = target: T16, EWIAQ (5-mer on peptide array)
T16 chain: EWIAQ

[17] = target: T17, Thermus thermophilus SlyD FKBP domain with grafted KalbTG Q-tag RYRQR, 8xHis
T17 chain: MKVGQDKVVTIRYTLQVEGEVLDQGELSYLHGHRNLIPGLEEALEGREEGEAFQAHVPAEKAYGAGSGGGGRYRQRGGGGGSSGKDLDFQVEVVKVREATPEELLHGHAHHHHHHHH

[18] = target: T18, Z-[GGGRYGKSGGGG]
T18 chain: GGGRYGKSGGGG

[19] = target: T19, EYFLQ (5-mer on peptide array)
T19 chain: EYFLQ

[20] = target: T20, Z-[GGGARSKLGGGG]
T20 chain: GGGARSKLGGGG

[21] = target: T21, EYWLQ (5-mer on peptide array)
T21 chain: EYWLQ

[22] = target: T22, YQRQR (5-mer on peptide array)
T22 chain: YQRQR

[23] = target: T23, RYGKS (5-mer on peptide array)
T23 chain: RYGKS

[24] = target: T24, EWALQ (5-mer on peptide array)
T24 chain: EWALQ

[25] = target: T25, RYTQR (5-mer on peptide array)
T25 chain: RYTQR

[26] = target: T26, Z-[GGGRYRQRGGGG]
T26 chain: GGGRYRQRGGGG

[27] = target: T27, AYRQR (5-mer on peptide array)
T27 chain: AYRQR

[28] = target: T28, APRYRQRAA (9-mer on peptide array)
T28 chain: APRYRQRAA

[29] = target: T29, QRQTR (5-mer on peptide array)
T29 chain: QRQTR

[30] = target: T30, RYESK (5-mer on peptide array)
T30 chain: RYESK

[31] = target: T31, DYFLQ (5-mer on peptide array)
T31 chain: DYFLQ

[32] = target: T32, QYRQR (5-mer on peptide array)
T32 chain: QYRQR

[33] = target: T33, Z-[GGGRYSQRGGGG]
T33 chain: GGGRYSQRGGGG

[34] = target: T34, DWYLQ (5-mer on peptide array)
T34 chain: DWYLQ

[35] = target: T35, Z-[GGGQRQRQGGGG]
T35 chain: GGGQRQRQGGGG

[36] = target: T36, Z-[GGGFRQRQGGGG]
T36 chain: GGGFRQRQGGGG

[37] = target: T37, Thermus thermophilus SlyD FKBP domain with S. mobaraensis MTG Q-tag DYALQ instead of RYRQR
T37 chain: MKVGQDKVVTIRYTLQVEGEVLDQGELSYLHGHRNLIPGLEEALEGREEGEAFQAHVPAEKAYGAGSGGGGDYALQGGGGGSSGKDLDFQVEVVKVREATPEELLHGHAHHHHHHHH

[38] = target: T38, RYSKY (5-mer on peptide array)
T38 chain: RYSKY

[39] = target: T39, DYALQ (5-mer on peptide array)
T39 chain: DYALQ

[40] = target: T40, Z-[GGGQYRQRGGGG]
T40 chain: GGGQYRQRGGGG

[41] = target: T41, FRQRQ (5-mer on peptide array)
T41 chain: FRQRQ

[42] = target: T42, Z-[GGGYKGRGGGGG]
T42 chain: GGGYKGRGGGGG

[43] = target: T43, WQRQR (5-mer on peptide array)
T43 chain: WQRQR

[44] = target: T44, RWKFK (5-mer on peptide array)
T44 chain: RWKFK

[45] = target: T45, YKSFK (5-mer on peptide array)
T45 chain: YKSFK

[46] = target: T46, YKYNK (5-mer on peptide array)
T46 chain: YKYNK

[47] = target: T47, Z-[GGGFRQRGGGGG]
T47 chain: GGGFRQRGGGGG

[48] = target: T48, Z-[GGGRYESKGGGG]
T48 chain: GGGRYESKGGGG

[49] = target: T49, YKYKY (5-mer on peptide array)
T49 chain: YKYKY

[50] = target: T50, DYVAQ (5-mer on peptide array)
T50 chain: DYVAQ

B1: Kutzneria albida microbial transglutaminase, activated enzyme (KalbTGt3) (protein)
chain: APLAPPLAEDRSYRTWRVEDYVEAWERYHGREMTEDERENLARGCIGVTVVNLNREDLSNPPLNLSFGSLRTAEAVQAALNKIVDTHPSPAQYEAAVAKDPILKRLKNVVKALPSWIDSAKLKASIFSKRFYSWQNPDWSEERAHTTYRPDRETDQVDMSTYRYRARPGYVNFDYGWFDQDTNTWWHANHEEPRMVVYQSTLRHYSRPLQDFDEQVFTVAFAKKDGGGSGHHHHHHHH
5-mer peptide array signal with KalbTG [1]: exhibited relatively lower signal on the KalbTG array
Array signal (log2) [2]: 12.2 log2
5-mer peptide array signal with KalbTG [3]: exhibited relatively lower signal on the KalbTG array
5-mer peptide array, incorporation of biotinylated glutamine donor Z-APRYRQRAAGGG-PEG-biotin [4]: the top 17 lysine-donor substrates identified on the 5-mer peptide array with KalbTG
5-mer peptide array, incorporation of biotinylated amine donor [5]: the top 22 glutamine-donor substrates identified on the 5-mer peptide array with KalbTG
Array signal (log2) [5]: 8.96 log2
5-mer peptide array, incorporation of biotinylated glutamine donor Z-APRYRQRAAGGG-PEG-biotin [6]: the top 17 lysine-donor substrates identified on the 5-mer peptide array with KalbTG
5-mer peptide array, incorporation of biotinylated amine donor [7]: the top 22 glutamine-donor substrates identified on the 5-mer peptide array with KalbTG
5-mer peptide array signal with KalbTG [8]: exhibited relatively lower signal on the KalbTG array
Reaction Rate in Solution (pmol s^-1), GLDH-coupled assay with 200 µM glutamine donor [9]: 3.26 pmol/s
GLDH-coupled activity assay [10]: KalbTG exhibited no activity with preferred S. mobaraensis MTG substrates DYALQ (SEQ ID NO: 22) and MLAQG (SEQ ID NO: 13)
Reaction rate in solution (pmol/s), GLDH-coupled assay [10]: -0.11 pmol/s
5-mer peptide array, incorporation of biotinylated glutamine donor Z-APRYRQRAAGGG-PEG-biotin [11]: the top 17 lysine-donor substrates identified on the 5-mer peptide array with KalbTG
5-mer peptide array, incorporation of biotinylated glutamine donor Z-APRYRQRAAGGG-PEG-biotin [12]: the top 17 lysine-donor substrates identified on the 5-mer peptide array with KalbTG
Reaction Rate in Solution (pmol s^-1), GLDH-coupled assay with 200 µM glutamine donor [13]: 3.65 pmol/s
Reaction rate in solution (pmol/s), GLDH-coupled assay [14]: 4 pmol/s
5-mer peptide array, incorporation of biotinylated amine donor [15]: the top 22 glutamine-donor substrates identified on the 5-mer peptide array with KalbTG
5-mer peptide array signal with KalbTG [16]: exhibited relatively lower signal on the KalbTG array
labeling yield with KalbTG K-tag-Cy3 (SDS-PAGE, in-gel fluorescence) [17]: approximately 70% yield of a labeled protein species after 15 minutes
Reaction Rate in Solution (pmol s^-1), GLDH-coupled assay with 200 µM glutamine donor [18]: 2.66 pmol/s
5-mer peptide array signal with KalbTG [19]: exhibited relatively lower signal on the KalbTG array
Reaction Rate in Solution (pmol s^-1), GLDH-coupled assay with 200 µM glutamine donor [20]: 3.87 pmol/s
5-mer peptide array signal with KalbTG [21]: exhibited relatively lower signal on the KalbTG array
5-mer peptide array, incorporation of biotinylated amine donor [22]: the top 22 glutamine-donor substrates identified on the 5-mer peptide array with KalbTG
Array signal (log2) [23]: 12.4 log2
5-mer peptide array signal with KalbTG [24]: exhibited relatively lower signal on the KalbTG array
5-mer peptide array, incorporation of biotinylated amine donor [25]: the top 22 glutamine-donor substrates identified on the 5-mer peptide array with KalbTG
Reaction rate in solution (pmol/s), GLDH-coupled assay [26]: 3.6 pmol/s
5-mer peptide array, incorporation of biotinylated amine donor [27]: the top 22 glutamine-donor substrates identified on the 5-mer peptide array with KalbTG
peptide array, second round of maturation [28]: A second round of maturation on the peptide array yielded APRYRQRAA (SEQ ID NO:24) as the top performing 9-mer substrate
5-mer peptide array, incorporation of biotinylated amine donor [29]: the top 22 glutamine-donor substrates identified on the 5-mer peptide array with KalbTG
5-mer peptide array, incorporation of biotinylated glutamine donor Z-APRYRQRAAGGG-PEG-biotin [30]: the top 17 lysine-donor substrates identified on the 5-mer peptide array with KalbTG
Array signal (log2) [30]: 12.7 log2
5-mer peptide array signal with KalbTG [31]: exhibited relatively lower signal on the KalbTG array
5-mer peptide array, incorporation of biotinylated amine donor [32]: the top 22 glutamine-donor substrates identified on the 5-mer peptide array with KalbTG
Array signal (log2) [32]: 8.7 log2
Reaction rate in solution (pmol/s), GLDH-coupled assay [33]: 3.22 pmol/s
5-mer peptide array signal with KalbTG [34]: exhibited relatively lower signal on the KalbTG array
Reaction rate in solution (pmol/s), GLDH-coupled assay [35]: 2.98 pmol/s
Reaction rate in solution (pmol/s), GLDH-coupled assay [36]: 3.07 pmol/s
labeling with KalbTG K-tag-Cy3 (SDS-PAGE, in-gel fluorescence) [37]: showed no incorporation of label when incubated with KalbTG
5-mer peptide array, incorporation of biotinylated glutamine donor Z-APRYRQRAAGGG-PEG-biotin [38]: the top 17 lysine-donor substrates identified on the 5-mer peptide array with KalbTG
Array signal (log2) [38]: 12.8 log2
5-mer peptide array signal with KalbTG [39]: exhibited relatively lower signal on the KalbTG array
Array signal (log2) [39]: 7.22 log2
Reaction rate in solution (pmol/s), GLDH-coupled assay [40]: 1.92 pmol/s
5-mer peptide array, incorporation of biotinylated amine donor [41]: the top 22 glutamine-donor substrates identified on the 5-mer peptide array with KalbTG
Array signal (log2) [41]: 8.93 log2
Reaction Rate in Solution (pmol s^-1), GLDH-coupled assay with 200 µM glutamine donor [42]: 3.01 pmol/s
5-mer peptide array, incorporation of biotinylated amine donor [43]: the top 22 glutamine-donor substrates identified on the 5-mer peptide array with KalbTG
5-mer peptide array, incorporation of biotinylated glutamine donor Z-APRYRQRAAGGG-PEG-biotin [44]: the top 17 lysine-donor substrates identified on the 5-mer peptide array with KalbTG
5-mer peptide array, incorporation of biotinylated glutamine donor Z-APRYRQRAAGGG-PEG-biotin [45]: the top 17 lysine-donor substrates identified on the 5-mer peptide array with KalbTG
5-mer peptide array, incorporation of biotinylated glutamine donor Z-APRYRQRAAGGG-PEG-biotin [46]: the top 17 lysine-donor substrates identified on the 5-mer peptide array with KalbTG
Reaction rate in solution (pmol/s), GLDH-coupled assay [47]: 2.11 pmol/s
Reaction Rate in Solution (pmol s^-1), GLDH-coupled assay with 200 µM glutamine donor [48]: 4.47 pmol/s
5-mer peptide array, incorporation of biotinylated glutamine donor Z-APRYRQRAAGGG-PEG-biotin [49]: the top 17 lysine-donor substrates identified on the 5-mer peptide array with KalbTG
5-mer peptide array signal with KalbTG [50]: exhibited relatively lower signal on the KalbTG array
